Patent US5804604, “Tat-derived transport polypeptides and fusion proteins” (Biogen, Inc., dated 1998)
Substitutions are numbered along the chain they refer to.

B1: TxHE2CCSS (tat37-72 chemically cross-linked to E2.123CCSS) (other)
chain: MVPDTGNPCHTTKLLHRDSVDSAPILTAFNSSHKGRINCNSNTTPIVHLKGDANTLKSLRYRFKKHSTLYTAVSSTWHWTGHNVKHKSAIVTLTYDSEWQRDQFLSQVKIPKTITVSTGFMSI
peptide: CFITKALGISYGRKKRRQRRRPPQGSQTHQVSLSKQ
modifications: cysteine cross-linked through bismaleimidohexane (BMH) to tat37-72; 1 transport molecule per E2 repressor homodimer; cysteine coupled to bismaleimidohexane (BMH)
B2: HE2.123 (unconjugated E2.123 repressor protein) (other)
chain: B1 chain with S58C, S67C
B3: JB106 (other)
chain: MYGRKKRRQRRRPPDTGNPCHTTKLLHRDSVDSAPILTAFNSSHKGRINCNSNTTPIVHLKGDANTLKCLRYRFKKHCTLYTAVSSTWHWTGHNVKHKSAIVTLTYDSEWQRDQFLSQVKIPKTITVSTGFMSI

Target: full-length HPV-16 E2 protein (E2 transactivator expressed from plasmid pAHE2) (human papillomavirus strain 16 (HPV-16), UniProt P03120)
Assay: cell-based or functional assay

| Binder | % repression (E2 repression assay, COS7 cells, without chloroquine) [% repression] |
| --- | --- |
| B1 | 69.4 |
| B2 | 0.3 |
| B3 | 94.3 |
